Measurements taken from US6730301.

Assays:
Test in all cases: cell-based or functional assay
[1] = molecular target: MCP-1RB (monocyte chemoattractant protein-1 receptor B) (human) (UniProt P41597)
[2] = molecular target: MIP-1α/RANTES receptor (Homo sapiens (Human)) (UniProt P32246)
[3] = molecular target: T1, MIP-1α/RANTES receptor (Homo sapiens (Human), UniProt P32246 1-355)
T1 sequence: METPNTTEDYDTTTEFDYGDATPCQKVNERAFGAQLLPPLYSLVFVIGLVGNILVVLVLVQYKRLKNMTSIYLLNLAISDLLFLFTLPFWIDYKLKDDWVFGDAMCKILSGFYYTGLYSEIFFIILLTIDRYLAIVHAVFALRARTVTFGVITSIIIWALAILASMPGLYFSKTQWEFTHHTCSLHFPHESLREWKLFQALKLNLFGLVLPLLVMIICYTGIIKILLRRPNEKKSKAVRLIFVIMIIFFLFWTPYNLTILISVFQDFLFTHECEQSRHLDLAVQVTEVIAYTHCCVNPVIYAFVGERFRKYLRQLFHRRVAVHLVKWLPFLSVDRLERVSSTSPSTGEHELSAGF

Chain of MCP-1RB (monocyte chemoattractant protein-1 receptor B) (human) (P41597 other isoform, or with tags, fused parts or gaps): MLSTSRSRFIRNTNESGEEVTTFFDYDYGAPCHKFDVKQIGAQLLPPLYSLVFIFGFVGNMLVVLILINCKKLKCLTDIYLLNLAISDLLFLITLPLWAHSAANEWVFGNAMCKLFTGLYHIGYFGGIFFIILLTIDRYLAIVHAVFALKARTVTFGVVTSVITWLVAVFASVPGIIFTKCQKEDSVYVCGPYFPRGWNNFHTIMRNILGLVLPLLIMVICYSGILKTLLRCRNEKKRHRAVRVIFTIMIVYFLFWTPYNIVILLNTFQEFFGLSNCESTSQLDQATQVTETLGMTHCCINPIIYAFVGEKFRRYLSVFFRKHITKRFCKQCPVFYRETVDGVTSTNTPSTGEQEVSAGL

## Gro-α (from UniProt P09341 35-107) (ligand)
[1]
  IC50, Inhibition of Adenylyl Cyclase: > 1000 nM
[2]
  IC50, Inhibition of Adenylyl Cyclase: > 1000 nM

## IL-8 (interleukin-8) (from UniProt P10145 28-99) (ligand)
[1]
  IC50, Inhibition of Adenylyl Cyclase: > 1000 nM

B1: MIP-1α (ligand, UniProt P10147 27-92, looked up)
chain: ADTPTACCFSYTSRQIPQNFIADYFETSSQCSKPGVIFLTKRSRQVCADPSEEWVQKYVSDLELSA
[1]
  IC50, Inhibition of Adenylyl Cyclase: > 1000 nM
[3]
  IC50, Inhibition of Adenylyl Cyclase: 0.11 nM
  Selectivity (against MCP-1RB), inhibition of adenylyl cyclase: > 9000 fold

B2: RANTES (ligand, UniProt P13501 24-91, looked up)
chain: SPYSSDTTPCCFAYIARPLPRAHIKEYFYTSGKCSNPAVVFVTRKNRQVCANPEKKWVREYINSLEMS
[1]
  IC50, Inhibition of Adenylyl Cyclase: > 1000 nM
[3]
  IC50, Inhibition of Adenylyl Cyclase: 0.14 nM
  Selectivity (against MCP-1RB), inhibition of adenylyl cyclase: > 7000 fold

B3: MIP-1β (ligand, UniProt P13236 24-92, looked up)
chain: APMGSDPPTACCFSYTARKLPRNFVVDYYETSSLCSQPAVVFQTKRSKQVCADPSESWVQEYVYDLELN
[1]
  IC50, Inhibition of Adenylyl Cyclase: > 1000 nM
[3]
  IC50, Inhibition of Adenylyl Cyclase: 10 nM
  Selectivity (against MCP-1RB), inhibition of adenylyl cyclase: > 100 fold
